From the supplement of paper PMC6757056
± gives the standard deviation of the averaged measurements.

B1: library; a variant is named by its letters at N, in order (parent)
chain: GCUGUCACCGAGAAACUGUGAAGUAUAUCUUAAACCUGGGCACUUAAAAGAUAUAUGGAGUUAGUAGUGCAACCUGCUCGGUCUGAUGAGUCCNNNNNNGGACGAAACAGC

Columns and labels:
[1] = variants of: B1; test: FACS-Seq fitted mean relative fluorescence mCherry/BFP without ligand (log10 relative fluorescence); HEK293T; ligand: cyclic di-GMP (c-di-GMP-II aptamer); higher = higher reporter protein expression; conditions: ligand present: no
In short: (§1)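 Lentivirally transduced HEK293T libraries carried an mCherry reporter with the ribozyme switch and an EF1α-BFP marker. Transduced cells were enriched, then incubated with or without ligand for 48 h and sorted into 6 bins by mCherry/BFP. Genomic DNA from each bin was PCR-amplified, barcoded and sequenced on MiSeq. Fluorescence was the fitted normal mean of log10(mCherry/BFP) bin counts, scaled to five spiked-in control ribozymes.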

[2] = variants of: B1; test: normalized RNA/DNA level without ligand (relative to sTRSVctl = 100) (log10 (% of sTRSVctl)); HEK293T; ligand: cyclic di-GMP (c-di-GMP-II aptamer); higher = less ribozyme self-cleavage, higher mRNA level; conditions: reporter: mCherry (pCS4076), ligand present: no
In short: (§2)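 Total RNA, extracted with EDTA 72 h after HEK293T cells were transfected with 4 µg per 6-well well of reporter-linked ribozyme switch library plasmids, was reverse-transcribed, amplified, barcoded and sequenced. Ligand, if used, was added 1 h before transfection. RNA level was derived from RNA reads divided by DNA reads and normalized to a spiked-in non-cleaving sequence or to the top sequences. This was multiplied by 100 and log10-transformed, with the top set of 25 sequences and a ≥100 DNA read minimum.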

[3] = variants of: B1; test: FACS-Seq fitted mean relative fluorescence mCherry/BFP with ligand (log10 relative fluorescence); HEK293T; ligand: cyclic di-GMP (c-di-GMP-II aptamer); ligand concentration (+) FACS-Seq: 1 mM; higher = higher reporter protein expression; conditions: ligand present: yes
In short: as §1

[4] = variants of: B1; test: normalized RNA/DNA level with ligand (relative to sTRSVctl = 100) (log10 (% of sTRSVctl)); HEK293T; ligand: cyclic di-GMP (c-di-GMP-II aptamer); ligand concentration (+) RNA-Seq: 1 mM; higher = less ribozyme self-cleavage, higher mRNA level; conditions: reporter: mCherry (pCS4076), ligand present: yes
In short: as §2

| Variant | FACS-Seq fitted mean (log10) [1] | normalized RNA/DNA level without ligand (log10) [2] | FACS-Seq fitted mean (log10) [3] | normalized RNA/DNA level with ligand (log10) [4] |
| --- | --- | --- | --- | --- |
| AUUCCA | -0.182 ± 0.1 | 1.7 ± 0.044 | -0.0711 ± 0.041 | 1.88 ± 0.14 |
| AUUCCC | -0.55 ± 0.097 | 1.8 ± 0.045 | -0.405 ± 0.018 | 1.89 ± 0.11 |
| GUUCUG | -0.079 ± 0.018 | 1.67 ± 0.021 | 0.284 ± 0.091 | 1.84 ± 0.15 |
| GUUCUA | -0.743 ± 0.033 | 1.635 ± 0.0068 | -0.5214 ± 0.0042 | 1.75 ± 0.095 |
| CUUAUA | -0.487 ± 0.096 | 1.44 ± 0.09 | -0.184 ± 0.028 | 1.65 ± 0.088 |
| UUGUUC | -0.6418 ± 0.0047 | 1.75 ± 0.018 | -0.462 ± 0.0095 | 1.89 ± 0.1 |
| GUUACU | -0.232 ± 0.064 | 1.75 ± 0.027 | 0.0991 ± 0.015 | 1.82 ± 0.13 |
| CUUAGC | -0.863 ± 0.058 | 1.79 ± 0.00046 | -0.484 ± 0.043 | 1.88 ± 0.11 |
| GUUCGA | -0.345 ± 0.023 | 1.6 ± 0.018 | 0.045 ± 0.055 | 1.75 ± 0.12 |
| GUUCGU | -0.35 ± 0.027 | 1.66 ± 0.01 | 0.0521 ± 0.011 | 1.8 ± 0.074 |
| CUGUCA | -0.00992 ± 0.023 | 1.52 ± 0.13 | 0.247 ± 0.011 | 1.68 ± 0.13 |
| AUUCGC | -0.123 ± 0.015 | 1.7768 ± 0.00017 | 0.194 ± 0.063 | 1.91 ± 0.11 |
| AUUCGG | -0.4 ± 0.23 | 1.7 ± 0.019 | 0.0339 ± 0.063 | 1.82 ± 0.2 |
| AUUUAA | -0.437 ± 0.065 | 1.58 ± 0.074 | -0.0871 ± 0.058 | 1.75 ± 0.078 |
| UUUAGU | 0.00244 ± 0.12 | 1.732 ± 0.013 | 0.273 ± 0.034 | 1.87 ± 0.088 |
| AUGUGU | -0.484 ± 0.16 | 1.53 ± 0.043 | -0.314 ± 0.021 | 1.77 ± 0.11 |
| CUUACA | -0.457 ± 0.02 | 1.55 ± 0.067 | -0.154 ± 0.088 | 1.72 ± 0.077 |
| AUUAAA | -0.425 ± 0.11 | 1.53 ± 0.048 | -0.0171 ± 0.053 | 1.71 ± 0.12 |
| CUGUUA | -0.289 ± 0.046 | 1.33 ± 0.091 | 0.158 ± 0.13 | 1.58 ± 0.084 |
| CUUGAC | -0.287 ± 0.2 | 1.69 ± 0.024 | 0.101 ± 0.066 | 1.83 ± 0.085 |
| CUUGAA | -0.585 ± 0.066 | 1.35 ± 0.11 | -0.291 ± 0.046 | 1.55 ± 0.086 |
| UUUUCG | -0.162 ± 0.14 | 1.78 ± 0.035 | 0.00347 ± 0.15 | 1.9 ± 0.12 |
| UUGUAU | 0.0117 ± 0.057 | 1.66 ± 0.051 | 0.163 ± 0.013 | 1.82 ± 0.16 |
| UUUGUU | -0.123 ± 0.13 | 1.73 ± 0.063 | 0.125 ± 0.064 | 1.86 ± 0.13 |

| Variant | FACS-Seq fitted mean (log10) [1] | normalized RNA/DNA level without ligand (log10) [2] | FACS-Seq fitted mean (log10) [3] | normalized RNA/DNA level with ligand (log10) [4] |
| --- | --- | --- | --- | --- |
| UUUGUA | -0.5429 ± 0.0021 | 1.708 ± 0.002 | -0.268 ± 0.088 | 1.85 ± 0.13 |
| UUUCGA | 0.0382 ± 0.21 | 1.82 ± 0.041 | 0.251 ± 0.061 | 1.89 ± 0.079 |
| AUUAUC | -0.473 ± 0.04 | 1.72 ± 0.062 | -0.167 ± 0.081 | 1.84 ± 0.13 |
| GUUCAU | -0.4248 ± 0.00049 | 1.69 ± 0.027 | -0.137 ± 0.0014 | 1.85 ± 0.092 |
| CUUUAA | -0.402 ± 0.005 | 1.32 ± 0.094 | -0.039 ± 0.028 | 1.54 ± 0.087 |
| AUUAGC | -0.0321 ± 0.09 | 1.6567 ± 0.0015 | 0.226 ± 0.11 | 1.76 ± 0.16 |
| GUUAGG | -0.197 ± 0.021 | 1.56 ± 0.061 | 0.171 ± 0.057 | 1.72 ± 0.076 |
| GUUAGA | -0.409 ± 0.02 | 1.51 ± 0.12 | -0.0172 ± 0.12 | 1.73 ± 0.11 |
| UUUAAU | 0.192 ± 0.051 | 1.698 ± 0.015 | 0.405 ± 0.0074 | 1.84 ± 0.08 |
| UUUAAC | 0.0586 ± 0.15 | 1.7 ± 0.022 | 0.264 ± 0.026 | 1.84 ± 0.099 |
| AUUGGA | -0.489 ± 0.028 | 1.45 ± 0.099 | -0.102 ± 0.071 | 1.62 ± 0.1 |
| AUUGGU | -0.24 ± 0.092 | 1.58 ± 0.052 | 0.0192 ± 0.053 | 1.78 ± 0.14 |
| GUGUGC | -0.9793 ± 0.0011 | 1.4 ± 0.12 | -0.724 ± 0.0079 | 1.63 ± 0.09 |
| AUUACG | -0.439 ± 0.014 | 1.67 ± 0.032 | -0.0914 ± 0.065 | 1.83 ± 0.072 |
| GUUUAU | -0.2549 ± 0.0013 | 1.652 ± 0.0032 | -0.31 ± 0.34 | 1.81 ± 0.086 |
| GUUUGA | -0.499 ± 0.039 | 1.56 ± 0.086 | -0.212 ± 0.018 | 1.71 ± 0.042 |
| GUUUGC | -0.138 ± 0.079 | 1.66 ± 0.043 | 0.164 ± 0.012 | 1.79 ± 0.15 |
| GUUUGG | -0.428 ± 0.018 | 1.62 ± 0.068 | -0.249 ± 0.089 | 1.8 ± 0.13 |
| AUUGCC | -0.0783 ± 0.14 | 1.776 ± 0.0015 | 0.207 ± 0.0046 | 1.92 ± 0.12 |
| CUUGGA | -0.381 ± 0.03 | 1.55 ± 0.031 | -0.107 ± 0.044 | 1.73 ± 0.16 |
| CUUCUA | -0.605 ± 0.032 | 1.44 ± 0.072 | -0.312 ± 0.059 | 1.67 ± 0.075 |
| AUUGAA | -0.159 ± 0.14 | 1.48 ± 0.079 | 0.152 ± 0.0043 | 1.66 ± 0.031 |
| GUUGAC | -0.0708 ± 0.036 | 1.658 ± 0.008 | 0.228 ± 0.1 | 1.79 ± 0.099 |
| GUUGAG | -0.16 ± 0.072 | 1.55 ± 0.081 | 0.0985 ± 0.045 | 1.72 ± 0.11 |

| Variant | FACS-Seq fitted mean (log10) [1] | normalized RNA/DNA level without ligand (log10) [2] | FACS-Seq fitted mean (log10) [3] | normalized RNA/DNA level with ligand (log10) [4] |
| --- | --- | --- | --- | --- |
| CUUUCA | -0.391 ± 0.0064 | 1.42 ± 0.11 | -0.114 ± 0.028 | 1.66 ± 0.051 |
| CUUUCC | 0.0673 ± 0.015 | 1.82 ± 0.038 | 0.163 ± 0.01 | 1.93 ± 0.11 |
| CUUUCU | -0.275 ± 0.072 | 1.65 ± 0.072 | 0.0435 ± 0.082 | 1.77 ± 0.095 |
| GUUUUG | 0.124 ± 0.17 | 1.61 ± 0.095 | 0.384 ± 0.05 | 1.8 ± 0.083 |
| GUUUUU | -0.978 ± 0.05 | 1.715 ± 0.0068 | -0.711 ± 0.12 | 1.87 ± 0.12 |
| GUUCCA | -0.877 ± 0.03 | 1.65 ± 0.022 | -0.674 ± 0.016 | 1.81 ± 0.12 |
| AUUCAG | -0.308 ± 0.062 | 1.59 ± 0.026 | -0.0248 ± 0.0054 | 1.74 ± 0.1 |
| CUUCAU | -0.264 ± 0.079 | 1.58 ± 0.044 | -0.136 ± 0.066 | 1.75 ± 0.12 |
| CUUCAA | -0.32 ± 0.059 | 1.43 ± 0.099 | 0.136 ± 0.056 | 1.64 ± 0.083 |
| AAAAAA |  | 1.37 ± 0.12 |  | 1.6 ± 0.078 |
| GUUAUG | -0.452 ± 0.02 | 1.57 ± 0.081 | -0.0804 ± 0.023 | 1.78 ± 0.09 |
| GUUAUA | -0.123 ± 0.14 | 1.59 ± 0.042 | 0.169 ± 0.14 | 1.75 ± 0.071 |
| GUGUUC | -0.72254 ± 0.00049 | 1.39 ± 0.14 | -0.527 ± 0.032 | 1.57 ± 0.14 |
| GUGUUG | -0.394 ± 0.069 | 1.59 ± 0.068 | -0.183 ± 0.047 | 1.74 ± 0.12 |
| GUGUUA | -0.147 ± 0.075 | 1.58 ± 0.027 | 0.207 ± 0.022 | 1.77 ± 0.092 |
| GUUGCG | -0.248 ± 0.029 | 1.81 ± 0.023 | 0.0336 ± 0.026 | 1.88 ± 0.092 |
| AUUGUA | -0.397 ± 0.017 | 1.56 ± 0.031 | 0.0499 ± 0.075 | 1.71 ± 0.097 |
| UUUCUU | 0.255 ± 0.19 | 1.773 ± 0.014 | 0.428 ± 0.021 | 1.89 ± 0.066 |
| UUUCUA | -0.278 ± 0.011 | 1.75 ± 0.065 | -0.016 ± 0.035 | 1.88 ± 0.11 |
| GUUAAU | -0.336 ± 0.014 | 1.62 ± 0.041 | -0.0912 ± 0.025 | 1.77 ± 0.067 |
| GUUAAG | -0.00319 ± 0.05 | 1.55 ± 0.05 | 0.189 ± 0.031 | 1.72 ± 0.098 |
| AUGUUA | -0.342 ± 0.13 | 1.523 ± 0.0094 | -0.0703 ± 0.042 | 1.73 ± 0.1 |
| CUUAAU | -0.0367 ± 0.24 | 1.55 ± 0.096 | 0.142 ± 0.073 | 1.71 ± 0.1 |
| CUUAAA | -0.598 ± 0.053 | 1.37 ± 0.072 | -0.238 ± 0.21 | 1.53 ± 0.16 |
